experiment: soluble on expression in E. coli; label from the status in PepcDB or PDB records

Sequence	soluble on expression in E. coli
MTIHHHGSAERKSIDDYSDIPRGEACKQLVEQLNRNLYSLNSNMQTTFKQMVHVETRIGHEISLLSSCLQENMSKCTMPYAPHEEQLVQLDSAKRNLKQLTRLLDARQIFDAEDSQSEKLKDRAIDDSLLPTLVAIGDNLKIIKELGAKPKFDAETYHKTKDRYLAWKGTEFAVKFDTPGGLDDIFDAFTTLNSVNDFYRLYQHHFDQSLNNLNKNSGIEDEKSLKEMGTVFVTKAAEHFRTHIGSLCKYCDENEAFTRLLDAWKNYIKNGTLEKLFEQSMENYNNYDLLSDLKSVVTKAYEEFETNTAGGPEDDEESIENIERIIVDGLMESAKKPLSEKLRSMVEPPPLNFRSVAEVMSSLENFAYLLREISHQLLEIYLEDEGREFMISILKPIFTDYTMRLCRMEDNSTPKVKLEEYLERIALAGQLSTIVEEYKDQTEIKNGLELKNAKKWMNERVKDAIRASHRFVTDKMPNHGSETYKESADMAKSALPTPQDFVVTATQNLLHLLRFWEEALANENTKVALIAHVMDINKESLETPDDDAIFAAILDRIASHVVKKLLQSINDVWLTDGKTATLSKGLVKEFLCDAEYLRDALVDLRAGTHDNLDSTINKLREQLKTMS	not soluble
GPGSMNRDPQNALLLEQMAQKTKRLLLQRSPSTVNGIRSFSRSLGIADDLGSTQVTAEELQHALQENNVSLEEHELQNIFTVLDRTGKGTIDPTDFIAVMCNNLGPLRKVWLRRVWRMFTKDPDDGSVQVCELQRQFIAEGHPAVVRHETTAAEVRKDFESAFNESTNPDGKISAQEFAEYYAGVSVSCSNDESFVALLRGVWPLPGVSRDFSLSLAKGEAQYQGSYHTEQSLAEKTAVASREAVRSALMRMIRCDHAPVALSSGAAARALCLSLAQADEAGSGFVSEAVFVGALRTHRLYVPNTSVLECLDTNGDGTVDIKYYEELLLPSPSAARLMLLARLWSRCFENKDAAYRVPVQDLHRKYHASSPADKDAFLTAWDVRTAVGGKVELEELVQWYVPQSAAVQRDKDFEALLHRQWGKYDE	soluble
MWDKSLVFTFFRRRFGMALSTFKREHIKKNLRNDEYDLVIIGGGITGAGIALDASERGMKVALVEMQDFAQGTSSRSTKLVHGGLRYLKQFQIGVVAETGKERAIVYENGPHVTTPEWMLLPMHKGGTFGKFSTSIGLGMYDRLAGVKKSERKKMLSKKETLAKEPLVKKEGLKGGGYYVEYRTDDARLTIEVMKRAAEKGAEIINYTKSEHFTYDKNQQVNGVKVIDKLTNENYTIKAKKVVNAAGPWVDDVRSGDYARNNKKLRLTKGVHVVIDQSKFPLGQAVYFDTEKDGRMIFAIPREGKAYVGTTDTFYDNIKSSPLTTQEDRDYLIDAINYMFPSVNVTDEDIESTWAGIRPLIYEEGKDPSEISRKDEIWEGKSGLLTIAGGKLTGYRHMAQDIVDLVSKRLKKDYGLTFSPCNTKGLAISGGDVGGSKNFDAFVEQKVDVAKGFGIDEDVARRLASKYGSNVDELFNIAQTSQYHDSKLPLEIYVELVYSIQQEMVYKPNDFLVRRSGKMYFNIKDVLDYKDAVIDIMADMLDYSPAQIEAYTEEVEQAIKEAQHGNNQPAVKELEHHHHHH	soluble
MRQVDFSPFYRSTVGFDHLFNWFDSRTQPDDVSSYPPYNIERLSEDSYRISMAVAGFSQDEIDIETHCNQLIVRGERKPENDDEEREFLYRGIASRAFERRFHLADHVKVIGAELGDGLLHIQLKREMPAELKPKKIVVQASSSAVKNGNDHAVRKVSLENERTE	not soluble
MSLITACPRPCAWRSYALGLGLLPLAAQAEFLADSSAHLDLRNFYQLRDYRQHDAPQSQAGNWSQGFVLRLQSGFTGGPLGFGLDATGLLGVKLDSGRGRSNDGTLPFGANSKEPVDDYSHLGLTAKLRYSQTQLQVGILMPQLPVAFRDDVRLLPQTFDGALLTSSEIEGLTLTAGQLWKSRTRESAGSDDMYIMGRDKAHASDEFNLAGATYAFTPRLSASYYYGQLKDIYRQHYLGLLHTLPLGEGLSLRSDLRYFDSGEDGAAISGPVDNRNLNAMLTLRAGAHAFGIGVQKMIGNDAFPVLNGYTTPYVANLMAYQTFTRPQEKSWQLRYDYDFAGLGLPGLNLMTRYVQGRDIDRGAGRADDSEWERNTDLSYVIQSGPLKSVALKWRNITYRSRYGADLDENRFIVNYTLKLWEGHHHHHH	soluble
MNDGDVSRQIQQMVRFIRQEAEEKANEISVSAEEEFNIEKLQLVEAEKKKIRQDYEKKEKQADVRKKIDYSMQLNASRIKVLQAQDDIVNAMKDQAAKDLLNVSRDEYAYKQLLKDLIVQCLLRLKEPSVLLRCREEDLGLVEAVLDDAKEEYAGKAKVHAPEVAVDTKIFLPPPPKSNDPHGLHCSGGVVLASRDGKIVCENTLDARLDVAFRMKLPVIRKSLFGQVTA	soluble
MAVKLGTLLLALALGLAQPASARRKLLVFLLDGFRSDYISDEALESLPGFKEIVSRGVKVDYLTPDFPSLSYPNYYTLMTGRHCEVHQMIGNYMWDPTTNKSFDIGVNKDSLMPLWWNGSEPLWVTLTKAKRKVYMYYWPGCEVEILGVRPTYCLEYKNVPTDINFANAVSDALDSFKSGRADLAAIYHERIDVEGHHYGPASPQRKDALKAVDTVLKYMTKWIQERGLQDRLNVIIFSDHGMTDIFWMDKVIELNKYISLNDLQQVKDRGPVVSLWPAPGKHSEIYNKLSTVEHMTVYEKEAIPSRFYYKKGKFVSPLTLVADEGWFITENREMLPFWMNSTGRREGWQRGWHGYDNELMDMRGIFLAFGPDFKSNFRAAPIRSVDVYNVMCNVVGITPLPNNGSWSRVMCMLKGRAGTAPPVWPSHCALALILLFLLA	soluble
MIKIDNVKKFYTDKVKIGPLDIEIPKAGFTSLIGPNGAGKSTTLLMIGRLLDMDEGQIQVANMDVSESKSKDLAKVLTILRQENHFVTRLTVRQLVGFGRFPYSKGRLTKEDEVIISKYIDFLDLTNLENRYLDELSGGQRQRAYVAMVLCQETEYVLLDEPLNNLDVARSVQMMEHLRRAANEFGRTILTVMHDINFAAKYSDKICAMKDGQIAAFGTVEEVMDSTLLTDIFETRIEIIKGPYGPIAVY	not soluble
MSLIPDVSQALAWLEKHPQALKGIQRGLERETLRVNADGTLATTGHPEALGSALTHKWITTDFAEALLEFITPVDGDIQHMLTFMRDLHRYTARKLGDERMWPLSMPCYIAEGQDIELAQYGTSNTGRFKTLYREGLKNRYGALMQTISGVHYNFSLPMAFWQAKCGVTEGGSGKRKISAGYFRLIRNYYRFGWVIPYLFGASPAICSSFLQGKPTTLPFEKTDCGMYYLPYATSLRLSDLGYTNKSQSNLGITFNDLHEYVAGLKRAIKTPSEEYARIGVEKDGKRLQINSNVLQIENELYAPIRPKRVTRSGESPSDALLRGGIEYIEVRSLDINPFSPIGVDEQQVRFLDLFMVWCVLADAPEMSSDELLCTRTNWNRVILERRKPGLTLGIGCETAQFPLPKVGKDLFRDLKRVAQTLDSIHGGEEYQKVCDELVACFDNPELTFSARILRSMIDEGIGGTGKAFGEAYRNLLREEPLEILQEEEFIAERDASVRRQQEIEAADTEPFAAWLAKHAEGGSHHHHHH	soluble
MMGDSVIYYVEQADEPVNRADERARKTFKYFWRELFWERRRIISALDFAMVKVPFFQDGEDGEICEHMWIDDIYFDGLYIYGVLNNEPGELTNVEQGESVCVPVDDISDWMFVCNGIPYGGFTIQAMRGQMTEEERTEHDAAWGIDFGDPGQILLVYEEKEHPENLEE	not soluble
MDLASNLGGKIDKSDVLTAVEKYEQYHVFHGGNEEERKANYTDMVNKYYDLATSFYEYGWGESFHFAQRWKGESLRESIKRHEHFLALQLGIQPGQKVLDVGCGIGGPLREIARFSNSVVTGLNNNEYQITRGKELNRLAGVDKTCNFVKADFMKMPFPENSFDAVYAIEATCHAPDAYGCYKEIYRVLKPGQCFAAYEWCMTDAFDPDNAEHQKIKGEIEIGDGLPDIRLTTKCLEALKQAGFEVIWEKDLAKDSPVPWYLPLDKNHFSLSSFRLTAVGRFITKNMVKILEYIRLAPQGSQRVSNFLEQAAEGLVDGGRREIFTPMYFFLARKPE	soluble
MVASSCLSMNDHHLLYQNISQDLDLGALLSSEVIQSLWGGYGELVRLIFAKRSVIVKHVKLPKPSEHPRGWNTDRSHQRKLHSYQVEVSWYAHFSGVMDSHCRVPQGLKTFQSENEWLIVMEDLAEAGFPKVITDAKLEHLRACLTWLANFHARYIGVCSDKLWHTGTYWHLATRPDELEALQDTELKKAAQLIDQTLSQAKFKTLVHGDAKLANFCFEQDELSVAAVDFQYVGHGCAMKDVALFMSSAVKPERCAEMEVWVLDTYFAKLQQALMVYQPNLDPDEVEREWRPLFAVAWADFQRFVKGWSPDHWKINPYTEALTRRALAYLRK	not soluble
